Measured values from US20170119790A1, “Agents, Uses and Methods” (CYTOGUIDE A/S, priority 2009, published 2017).
Several values for one entry are separate records, joined by “and”; a condition that tells them apart may be missing. Equal entries are not always repeated.

Assays:
mouse CD163 1-5 wt = biological target: T1, mouse CD163 1-5 wt (Mus musculus, UniProt Q2VLH6); assay: Western blotting of mouse CD163 and knock in mutant; type: binding
T1 construct: CD163 domain 1-5 was used for expression of mouse CD163 domain 1-5/V5/His; made in house; host or cells: Lenti-X 293T, transient; captured from supernatant on Ni-NTA
T1 sequence (Q2VLH6 with tags, fused parts or gaps): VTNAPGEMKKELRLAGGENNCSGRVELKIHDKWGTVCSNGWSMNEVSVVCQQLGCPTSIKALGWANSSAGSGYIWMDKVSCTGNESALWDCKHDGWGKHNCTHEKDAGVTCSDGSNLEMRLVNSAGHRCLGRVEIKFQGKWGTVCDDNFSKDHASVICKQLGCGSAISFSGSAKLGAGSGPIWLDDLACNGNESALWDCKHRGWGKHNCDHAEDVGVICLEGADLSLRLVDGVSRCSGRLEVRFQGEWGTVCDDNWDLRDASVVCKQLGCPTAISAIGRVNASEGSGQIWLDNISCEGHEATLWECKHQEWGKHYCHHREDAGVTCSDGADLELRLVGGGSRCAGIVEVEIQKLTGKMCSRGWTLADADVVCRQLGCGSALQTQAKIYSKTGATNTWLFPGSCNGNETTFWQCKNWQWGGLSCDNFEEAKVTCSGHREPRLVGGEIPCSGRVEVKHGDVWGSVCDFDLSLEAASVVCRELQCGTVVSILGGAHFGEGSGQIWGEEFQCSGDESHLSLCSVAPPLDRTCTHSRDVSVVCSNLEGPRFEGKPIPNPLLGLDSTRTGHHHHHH
Protocol: The mouse CD163 1-5 and the mouse CD163 domain 1 mutant were expressed transient in Lenti-X 293T cells as follows: 1.5 μg of the DNA was diluted in OptiCHOPro SFM (8 mM L-glutamine) to a total volume of 50 μl The DNA was gently mixed with 50 μl of OptiCHOPro SFM containing 1.5 μl Freestyle MAX transfection reagent (Invitrogen, Taastrup, Denmark). After 10 min of incubation at room temperature the complexes were added to 1×10^6 cells in 1 ml. Three days later, the cell supernatants were harvested by centrifugation.
Tris pH 8 buffer, and cell culture supernatants were added 60 μl of Ni-NTA His-bind resin slurry. After 1 hour shaking at 4° C. the supernatants were aspired and each of the purifications were eluted with 90 μl 50 mM Tris pH 8, 25 mM EDTA buffer.
90 μl of each of the eluates were added 30 μl of 4×LDS sample buffer. 20 μl samples of each supernatant and 8 μl SeeBlue plus2 prestained marker were loaded on NuPage 4-12% Bis-Tris-Gels (Invitrogen, Taastrup, Denmark) and the SDS-PAGEs were run with MOPS running buffer according to instructions of the manufacturer (200 V constant for 50 min). Blotting to PVDF membranes (Invitrogen, Taastrup, Denmark) was done on an iBLOT device according to instructions of the manufacturer. After blotting the membranes were washed briefly in 1×PBS 0.1% Tween and blocked for 30 min in 1×PBS 2% Tween at room temperature with shaking. […]

[1] = biological target: T2, CD163 on peripheral blood monocytes (Homo sapiens, UniProt Q86VB7); assay: Quantitative flow cytometry of monocyte surface CD163 expression using different anti-CD163 mAb clones; type: cell-based
T2 construct: Freshly drawn peripheral whole blood samples or PBMC; endogenous in cells; host or cells: human peripheral blood monocytes, blood dendritic cells, monocyte-derived macrophages (healthy donors, buffy coats)
T2 sequence (Q86VB7 42-1156): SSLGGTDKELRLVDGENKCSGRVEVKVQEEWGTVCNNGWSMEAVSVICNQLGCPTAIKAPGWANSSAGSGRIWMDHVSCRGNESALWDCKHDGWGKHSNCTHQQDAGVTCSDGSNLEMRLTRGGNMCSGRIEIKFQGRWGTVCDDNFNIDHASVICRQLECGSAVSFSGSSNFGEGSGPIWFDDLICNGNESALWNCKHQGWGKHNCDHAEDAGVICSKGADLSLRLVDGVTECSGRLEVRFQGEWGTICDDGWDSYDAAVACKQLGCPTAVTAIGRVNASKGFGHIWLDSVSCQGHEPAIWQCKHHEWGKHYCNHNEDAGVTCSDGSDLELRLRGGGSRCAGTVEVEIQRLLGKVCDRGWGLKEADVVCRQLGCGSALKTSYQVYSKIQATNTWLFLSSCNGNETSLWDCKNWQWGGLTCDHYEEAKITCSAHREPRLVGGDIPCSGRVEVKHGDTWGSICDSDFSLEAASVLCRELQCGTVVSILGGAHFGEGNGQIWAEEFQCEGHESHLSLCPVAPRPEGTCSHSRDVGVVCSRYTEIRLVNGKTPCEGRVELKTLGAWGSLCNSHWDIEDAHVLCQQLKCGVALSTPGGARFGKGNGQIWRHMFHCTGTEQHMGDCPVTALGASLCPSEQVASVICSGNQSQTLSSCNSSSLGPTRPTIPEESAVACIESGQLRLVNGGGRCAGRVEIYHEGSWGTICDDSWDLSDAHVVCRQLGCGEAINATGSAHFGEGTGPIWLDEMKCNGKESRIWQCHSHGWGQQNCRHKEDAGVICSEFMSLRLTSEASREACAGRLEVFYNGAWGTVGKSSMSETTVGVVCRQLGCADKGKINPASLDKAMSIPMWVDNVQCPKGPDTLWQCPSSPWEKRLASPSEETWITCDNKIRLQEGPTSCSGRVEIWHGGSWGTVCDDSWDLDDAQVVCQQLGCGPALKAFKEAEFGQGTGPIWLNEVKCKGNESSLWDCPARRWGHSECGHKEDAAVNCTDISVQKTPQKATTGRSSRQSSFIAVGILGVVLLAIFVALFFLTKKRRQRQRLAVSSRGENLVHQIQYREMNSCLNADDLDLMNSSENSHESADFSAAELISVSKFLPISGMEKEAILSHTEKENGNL
Protocol: EDTA, citrate, and heparin stabilized peripheral blood samples were obtained by standard venipuncture from healthy donors in Venoject® vacutainers (Terumo Europe NV, Leuven, Belgium). Peripheral blood mononuclear cells (PBMC) were isolated from leukocyte-rich buffy coats by gradient separation centrifugation using Accuspin System Histopaque®—1077 (Sigma-Aldrich Denmark A/S, Broendby, Denmark). Buffy coats were prepared from units of whole blood (approximately 472 ml) anti-coagulated with CPD-A (Baxter, Munich, Germany) donated by healthy volunteers. Approval for the study was obtained from the regional ethical committee (j.nr. 20040068).
Freshly drawn peripheral whole blood samples or PBMC (approx. 3×10^6 cells) were stained with isotype-matched control antibody or a relevant antibody for one hour at 4° C. in the dark. When staining whole blood, erythrocytes were lysed for 15 min with 4° C. cold solution of ammonium chloride. When indirect immunofluoresence staining was required, cells were initially incubated with unconjugated primary CD163 antibody for one hour at 4° C., washed three times with D-PBS, pH 7.4, followed by incubation with goat anti-mouse-conjugated Alexa-Fluor® 488 (1:200 dilution; Molecular Probes, Invitrogen, Carlsbad, Calif., USA) for one hour at 4° C. in the dark. The stained cells were washed twice three D-PBS, pH 7.4, re-suspended in 400 μl FACSflow (Becton Dickinson, San Jose, Calif., USA), and kept on ice until analysis. All samples were analyzed using a FACSCalibur flow cytometer and compensated for spectral overlap using FlowJo for Macintosh software version 8.3 (TreeStar, San Carlos, Calif.). For CD163 density quantitation, flow cytometric estimation of antibodies bound/cell (ABCs) was performed using Quantibrite PE beads (Becton Dickinson, San Jose, Calif., USA) as recommended by the manufacturer. After the cells were stained, as detailed, a set of 4 pre-calibrated fluorescently labeled beads was used for standardization before the samples were acquired. The Quantibrite PE beads were run at the same instrument settings as the assay, and the linear regression obtained using the Quantibrite PE beads was used to convert the FL2 linear fluorescence staining of cell population into the number of (CD163) PE molecules bound per cell (ABC).

[2] = PBMC isolated by density gradient centrifugation
[3] = Table 2, second column pair, head prints CITRATE
[4] = anticoagulant CITRATE, whole blood (Table 1, FIG. 2-3)
[5] = anticoagulant EDTA, whole blood (Table 1, FIG. 2-3)
[6] = anticoagulant HEPARIN, whole blood (Table 1, FIG. 2-3)
[7] = freshly drawn EDTA stabilized whole blood, FIG. 1

B1: MAC2-158: anti-human CD163 murine mAb, binds SRCR domain 1, IQ Products; VH SEQ ID NO: 1, VL SEQ ID NO: 2 (antibody, V domains shown)
VH: DVQLQESGPGLVKPSQSLSLTCTVTGYSITSDYAWNWIRQFPGNKLEWMGYITYSGITNYNPSLKSQISITRDTSKNQFFLQLNSVTTEDTATYYCVSGTYYFDYWGQGTTLTVSS
VL: SVVMTQTPKSLLISIGDRVTITCKASQSVSSDVAWFQQKPGQSPKPLIYYASNRYTGVPDRFTGSGYGTDFTFTISSVQAEDLAVYFCGQDYTSPRTFGGGTKLEIKRA
modifications: Mac2-158 VH; Mac2-158 VL
With B1 the “binding in western blot” value (mouse CD163 1-5 wt) was “did not bind”, the “density of CD163 receptors per monocyte” value [1, 2] was 11,417 and the “fraction of CD14+ monocytes stained for CD163” value [1, 2] was 81.10%. The “% CD163+ monocytes” value ([1]; Table 2, first column pair, head prints EDTA) was 84.48%, the “% CD163+ monocytes” value [1, 3] was 87.23% and the CD163 density on monocytes [1, 3] was 17700 receptors/monocyte. The “% CD163+ monocytes” value ([1]; Table 2, third column pair, head prints HEPARIN) was 83.97%, the “% CD163+ monocytes” value [1, 4] was 83.97% and 81.97% and the “CD163 density on monocytes” value [1, 4] was 17.726. The “% CD163+ monocytes” value [1, 5] was 87.23% and 82.23%, the “CD163 density on monocytes” value [1, 5] was 17.725 and the “% CD163+ monocytes” value [1, 6] was 84.43%. The CD163 density monocytes [1, 6] was 28.029, the “density of CD163 receptors per monocyte” value [1, 7] was 17,725 and the “fraction of peripheral blood monocytes (CD14+) recognized” value [1, 7] was 84.06%. The “proportion of circulating CD163 expressing monocytes identified” value ([1]; summary statement) was over 80%.
